Where a chain is given by its changes, count along the chain named. Where no end group is shown, it is not given here.
B1: fusion protein 217781 (designed binder, not shown: small tags and cut ends)
chain (part 1 of 2): not shown
chain (part 2 of 2): LAEAKVLALKELDKYGISNYYKNLINNAKTIEGVKALKEAIVAA
notes: also called CID 217781
B2: fusion protein 218466 (designed binder, not shown: small tags and cut ends)
chain (part 1 of 2): not shown
chain (part 2 of 2): B1 chain (part 2 of 2) with E39D, A40E
notes: also called CID 218466
B3: fusion protein 218514 (designed binder, not shown: small tags and cut ends)
chain (part 1 of 2): not shown
chain (part 2 of 2): B1 chain (part 2 of 2) with K35E, E39D, V42L
notes: also called CID 218514
B4: fusion protein 218467 (designed binder, not shown: small tags and cut ends)
chain (part 1 of 2): not shown
chain (part 2 of 2): LAEAKVLAIKELDKAGISNYYFNLINNAKTVEGVKDLKAQIVAA
notes: also called CID 218467
B5: fusion protein 218513 (designed binder, not shown: small tags and cut ends)
chain (part 1 of 2): not shown
chain (part 2 of 2): B1 chain (part 2 of 2) with I31V, K35E, V42L
notes: also called CID 218513
B6: fusion protein 218512 (designed binder, not shown: small tags and cut ends)
chain (part 1 of 2): not shown
chain (part 2 of 2): B1 chain (part 2 of 2) with I31V
notes: also called CID 218512
B7: fusion protein 217787 (designed binder, not shown: small tags and cut ends)
chain (part 1 of 2): not shown
chain (part 2 of 2): LAEAKVLALKELDKYGISDFYKRLIDKAKTIEGVEALKDAILAA
notes: also called CID 217787
B8: Fusion proteins with albumin binding domain of SEQ ID NO: 5 (designed binder, not shown: small tags and cut ends)
chain: B1 chain (part 2 of 2) with E39D
modifications: also: part of fusion protein, targeting moiety, linker, tag and order not given here
B9: Fusion proteins with albumin binding domain of SEQ ID NO: 7 (designed binder, not shown: small tags and cut ends)
chain: B1 chain (part 2 of 2) with K35E, E39D, V42L
modifications: also: part of fusion protein, targeting moiety, linker, tag and order not given here
notes: also called c24
B10: Fusion proteins with albumin binding domain of SEQ ID NO: 21 (designed binder, not shown: small tags and cut ends)
chain: B1 chain (part 2 of 2) with E39A
modifications: also: part of fusion protein, targeting moiety, linker, tag and order not given here
B11: Fusion proteins with albumin binding domain of SEQ ID NO: 26 (designed binder, not shown: small tags and cut ends)
chain: B1 chain (part 2 of 2) with K35E, V42L
modifications: also: part of fusion protein, targeting moiety, linker, tag and order not given here
B12: Fusion proteins with albumin binding domain of SEQ ID NO: 22 (designed binder, not shown: small tags and cut ends)
chain: B1 chain (part 2 of 2) with E39A, A40Q, V42L
modifications: also: part of fusion protein, targeting moiety, linker, tag and order not given here
B13: Fusion proteins with albumin binding domain of SEQ ID NO: 23 (designed binder, not shown: small tags and cut ends)
chain: B1 chain (part 2 of 2)
modifications: also: part of fusion protein, targeting moiety, linker, tag and order not given here
notes: also called c19
B14: Fusion proteins with albumin binding domain of SEQ ID NO: 24 (designed binder, not shown: small tags and cut ends)
chain: B1 chain (part 2 of 2) with K35E, E39D
modifications: also: part of fusion protein, targeting moiety, linker, tag and order not given here
B15: Fusion proteins with albumin binding domain of SEQ ID NO: 13 (designed binder, not shown: small tags and cut ends)
chain: B4 chain (part 2 of 2) with N19D, V31I, D36A
modifications: also: part of fusion protein, targeting moiety, linker, tag and order not given here
B16: Fusion proteins with albumin binding domain of SEQ ID NO: 6 (designed binder, not shown: small tags and cut ends)
chain: B1 chain (part 2 of 2) with E39D, A40E
modifications: also: part of fusion protein, targeting moiety, linker, tag and order not given here
notes: also called c20
B17: Fusion proteins with albumin binding domain of SEQ ID NO: 25 (designed binder, not shown: small tags and cut ends)
chain: B1 chain (part 2 of 2) with K35E
modifications: also: part of fusion protein, targeting moiety, linker, tag and order not given here

Biological target: T1, Her2-Fc (human, UniProt P04626 23-652)
T1 construct: Coated in ELISA
Test: ELISA on coated Her2-Fc; KD 24 h against KD 0 h, mouse serum
Method: (§1) High binding plates (Greiner, 781061) were immobilized with 2.5 μg/ml hFAP-Fc or 1.2 μg/ml Her2-Fc over night at 4° C. Dilution series of 3 μM to 0.07 pM of fusion proteins with binding specifically to Her2 were incubated in 100% human serum or 100% mouse serum for 24 h at 37° C. Dilution series of 3 µM to 0.2 pM or 1 μM to 0.01 fM of fusion proteins with binding specifically to hFAP were incubated in 100% human serum or 100% mouse serum for 24 h at 37° C. ELISA-plates were washed three times with PBST (PBS+0.1% Tween) and blocked with 3% BSA/0.5% Tween/PBS up to 2 h at room temperature (rt). After preincubation for 0 h or 24 h in the presence of serum the dilution series were incubated on ELISA-plates for up to 1 h at rt. Wells were washed with PBST and incubated with biotinylated anti-ubiquitin-antibody (1:300) for up to 1 h at rt. The binding was visualized with Streptavidin-HRP (1:5.000).
(§2) The fusion proteins comprise the albumin binding domain (referred to as HED) and the targeting moiety.

Row | increase of KD vs target [fold] | Binder
1 | 1.72 | B1
2 | 1.14 | B2
3 | 1.19 | B3
4 | 1.2 | B4
5 | 1.23 | B5
6 | 1.2 | B6
7 | 1.43 | B7

Biological target: T2, human serum albumin (human, UniProt P02768 25-609)
T2 construct: also called HSA
T2 sequence (P02768 25-609 limits assumed): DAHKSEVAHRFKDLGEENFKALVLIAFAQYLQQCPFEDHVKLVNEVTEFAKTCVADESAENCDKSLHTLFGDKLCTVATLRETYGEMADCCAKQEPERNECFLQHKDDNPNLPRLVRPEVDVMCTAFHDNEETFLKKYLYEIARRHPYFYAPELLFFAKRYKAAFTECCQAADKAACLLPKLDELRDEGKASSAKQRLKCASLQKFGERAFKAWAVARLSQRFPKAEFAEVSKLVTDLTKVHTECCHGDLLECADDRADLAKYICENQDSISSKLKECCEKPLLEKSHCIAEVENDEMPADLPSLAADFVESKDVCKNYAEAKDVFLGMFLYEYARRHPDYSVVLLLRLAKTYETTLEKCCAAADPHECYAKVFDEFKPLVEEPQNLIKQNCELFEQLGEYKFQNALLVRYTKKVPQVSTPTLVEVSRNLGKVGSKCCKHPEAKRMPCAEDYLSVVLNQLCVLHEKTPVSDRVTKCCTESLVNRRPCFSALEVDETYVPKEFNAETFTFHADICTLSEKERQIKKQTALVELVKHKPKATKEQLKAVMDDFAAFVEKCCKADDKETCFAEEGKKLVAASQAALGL
Test: SPR, HSA immobilised on the chip, pH 7.3, 1:1 Langmuir fit [continued]
Method: (§3) Recombinant protein A, HSA, MSA or target (either ED-B or Her2) was immobilized on a High Capacity Amine sensor chip (Bruker) after NHS/EDC activation with a Sierra SPR-32 system (Bruker). The chip was equilibrated with SPR running buffer (PBS 0.05%, Tween pH 7.3). Injection of ethanolamine after target immobilization was used to block free NHS groups. To determine the binding of fusion proteins to FAP, the Fc-tagged target was injected with 60 or 30 nM to Protein A coupled spots followed by the injection of fusion proteins.
(§4) Binding proteins were applied to the chip in serial dilutions with a flow rate of 30 μl/min. Upon binding, analyte accumulated on the surface increasing the refractive index. This change in the refractive index was measured in real time and plotted as response or resonance units versus time. The association was performed for 120 seconds and the dissociation for 180 seconds. After each run, the chip surface was regenerated with 30 μl regeneration buffer (10 mM glycine pH 2.0 or pH 1.5) and equilibrated with running buffer. Binding studies were carried out using the Sierra SPR-32 system (Bruker); data evaluation was operated via the Sierra Analyser software, provided by the manufacturer, by the use of the Langmuir 1:1 model (RI=0).

Row | Kd [nM] | Binder
8 | 2.9 | B1
9 | 6.3 | B2
10 | 1.8 | B3
11 | 1.9 | B5
12 | 1.8 | B6
13 | 0.6 | B7

Biological target: T1, Her2-Fc
Test: ELISA on coated Her2-Fc; 0 h in mouse serum
Method: as §1, §2

Row | Kd [nM] | Binder
14 | 0.36 | B1
15 | 0.21 | B2
16 | 0.21 | B3
17 | 0.17 | B4
18 | 0.25 | B5
19 | 0.2 | B6
20 | 0.42 | B7

Biological target: T3, Her2 (immobilised on the SPR chip) (human, UniProt P04626 23-652, limits assumed)
T3 construct: construct not described; also called human epidermal growth factor receptor 2
Test: SPR, Her2 immobilised on the chip, pH 7.3, 1:1 Langmuir fit [continued]
Method: as §3, §4

Row | Kd [nM] | Binder
21 | 4.1 | B1
22 | 4.4 | B2
23 | 3.3 | B3
24 | 3.3 | B5
25 | 2.7 | B6
26 | 7.3 | B7

Biological target: T1, Her2-Fc
Test: ELISA on coated Her2-Fc; after 24 h in mouse serum at 37 C
Method: as §1, §2

Row | max binding after 24 h [%] | Binder
27 | 97.7 | B1
28 | 96.6 | B2
29 | 100 | B3
30 | 104 | B4
31 | 106 | B5
32 | 98.6 | B6
33 | 100 | B7

Biological target: T4, Her2 expressed on Sk-Br-3 cells (human, UniProt P04626 23-1255)
T4 construct: whole, on cells; also called human epidermal growth factor receptor 2
Test: flow cytometry, dilution series on Sk-Br-3 cells
Method: Her2 expressing Sk-Br-3-cells and HEK293-hFAP overexpressing cells were thawed, washed with medium containing FCS, subsequently washed with FACS blocking buffer (PBS/0.1% Sodium Azide/3% FCS) and 100 μl seeded in 96-well round bottom plates with a density of 1×10⁶ cells/ml. Dilution series from 10 µM to 8.6 fM (CID 217781, CID 217787) and a dilution series of 3 µM to 0.2 μM (CID 218466, CID 218467, 218512, CID 218513, CID 218514, CID 218515, CID 218516) were incubated on Her2-expressing Sk-Br-3-cells and dilution series from 1 μM to 0.07 μM of fusion proteins 218690 and 218702 were incubated on hFAP-overexpressing HEK293-cell line for 45 min at 4° C. After centrifugation the supernatants were removed and cells were washed with FACS blocking buffer and 100 μl/well rabbit anti-Strep-Tag antibody (GenScript; A00626), 1:300 diluted in FACS blocking buffer were added. After removal of the primary antibody goat anti-rabbit IgG Alexa Fluor 488 antibody (Invitrogen; A4008) was applied in a 1:1000 dilution in FACS blocking buffer. Flow cytometry measurement was conducted on the Guava easyCyte 5HT device from Merck-Millipore at excitation wavelength 488 nm and emission wavelength 525/30 nm. The * in table 2 refers to a fusion protein with the albumin binding domain as dimer (homo-dimer) and/or the targeting moiety as dimer.

Row | Kd [nM] | Binder
34 | 2.05 | B1
35 | 2.69 | B2
36 | 2.19 | B3
37 | 3.81 | B4
38 | 2.48 | B5
39 | 1.72 | B6
40 | 2.17 | B7

Biological target: T1, Her2-Fc
Test: ELISA on coated Her2-Fc; 0 h in human serum
Method: as §1, §2

Row | Kd [nM] | Binder
41 | 0.61 | B1
42 | 0.34 | B2
43 | 0.29 | B3
44 | 0.34 | B4
45 | 0.34 | B5
46 | 0.23 | B6
47 | 0.84 | B7

Biological target: T5, mouse serum albumin (mouse, UniProt P07724 25-608)
T5 construct: also called MSA
Test: SPR, MSA immobilised
Method: as §3, §4

Row | Kd [nM] | Binder
48 | < 10 | B8
49 | < 10 | B9
50 | < 16 | B10
51 | < 10 | B11
52 | < 16 | B12
53 | < 10 | B13
54 | < 16 | B14
55 | < 16 | B15
56 | < 10 | B16
57 | < 16 | B17

Biological target: T1, Her2-Fc
Test: ELISA on coated Her2-Fc; 24 h in human serum at 37 C
Method: as §1, §2

Row | Kd [nM] | Binder
58 | 0.79 | B1
59 | 0.32 | B2
60 | 0.3 | B3
61 | 0.36 | B4
62 | 0.43 | B5
63 | 0.36 | B6
64 | 0.53 | B7

Biological target: T1, Her2-Fc
Test: ELISA on coated Her2-Fc; after 24 h in human serum at 37 C
Method: as §1, §2

Row | max binding after 24 h [%] | Binder
65 | 94.1 | B1
66 | 95.1 | B2
67 | 96.4 | B3
68 | 99 | B4
69 | 100 | B5
70 | 100 | B6
71 | 96.2 | B7

Biological target: T1, Her2-Fc
Test: ELISA on coated Her2-Fc; 24 h in mouse serum at 37 C
Method: as §1, §2

Row | Kd [nM] | Binder
72 | 0.63 | B1
73 | 0.23 | B2
74 | 0.25 | B3
75 | 0.2 | B4
76 | 0.31 | B5
77 | 0.24 | B6
78 | 0.6 | B7

Biological target: T1, Her2-Fc
Test: ELISA on coated Her2-Fc; KD 24 h against KD 0 h, human serum
Method: as §1, §2

Row | increase of KD vs target [fold] | Binder
79 | 1.29 | B1
80 | 0.93 | B2
81 | 1.06 | B3
82 | 1.05 | B4
83 | 1.27 | B5
84 | 1.58 | B6
85 | 0.63 | B7

Reference: patent US20250388696A1 (NAVIGO PROTEINS, published 2025)
